# Experimental data as given in IntAct's records for PubMed 18583960.
# B1: Serine/threonine-protein kinase TBK1 (Mus musculus), Q9WUN2 (parent)
# chain: MQSTSNHLWLLSDILGQGATANVFRGRHKKTGDLYAVKVFNNISFLRPVDVQMREFEVLKKLNHKNIVKLFAIEEETTTRHKVLIMEFCPCGSLYTVLEEPSNAYGLPESEFLIVLRDVVGGMNHLRENGIVHRDIKPGNIMRVIGEDGQSVYKLTDFGAARELEDDEQFVSLYGTEEYLHPDMYERAVLRKDHQKKYGATVDLWSVGVTFYHAATGSLPFRPFEGPRRNKEVMYKIITGKPSGAISGVQKAENGPIDWSGDMPLSCSLSQGLQALLTPVLANILEADQEKCWGFDQFFAETSDVLHRMVIHVFSLQHMTAHKIYIHSYNTAAVFHELVYKQTKIVSSNQELIYEGRRLVLELGRLAQHFPKTTEENPIFVTSREQLNTVGLRYEKISLPKIHPRYDLDGDASMAKAVTGVVCYACRTASTLLLYQELMRKGVRWLVELVKDDYNETVHKKTEVVITLDFCIRNIEKTVKVYEKLMKVNLEAAELGEISDIHTKLLRLSSSQGTIESSLQDISSRLSPGGLLADTWAHQEGTHPRDRNVEKLQVLLNCITEIYYQFKKDKAERRLAYNEEQIHKFDKQKLYYHATKAMSHFSEECVRKYEAFKDKSEEWMRKMLHLRKQLLSLTNQCFDIEEEVSKYQDYTNELQETLPQKMLAASGGVKHAMAPIYPSSNTLVEMTLGMKKLKEEMEGVVKELAENNHILERFGSLTMDGGLRNVDCL
# partner: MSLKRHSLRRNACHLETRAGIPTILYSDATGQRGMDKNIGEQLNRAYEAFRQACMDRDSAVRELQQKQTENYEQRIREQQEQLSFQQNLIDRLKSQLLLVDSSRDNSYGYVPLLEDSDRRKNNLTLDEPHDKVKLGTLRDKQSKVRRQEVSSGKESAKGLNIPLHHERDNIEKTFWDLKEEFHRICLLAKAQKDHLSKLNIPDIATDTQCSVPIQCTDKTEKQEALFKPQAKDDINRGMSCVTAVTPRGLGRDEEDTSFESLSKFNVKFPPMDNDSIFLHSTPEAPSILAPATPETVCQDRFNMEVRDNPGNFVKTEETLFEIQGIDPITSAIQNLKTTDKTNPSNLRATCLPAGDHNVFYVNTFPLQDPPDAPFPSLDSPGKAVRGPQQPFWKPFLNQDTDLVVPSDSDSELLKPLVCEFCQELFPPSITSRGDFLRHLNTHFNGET
# Variants of: B1
# Settings: with tank_mouse Tank
row,effect of a mutation on the interaction,Variant
1,decreasing interaction,S172A
